“Also recorded” adds a separate entry of the source.
Key:
[1] = biological target: GST-Bcl-XL (Homo sapiens, UniProt Q07817); assay: GST-Bcl-XL binding (glutathione bead pull-down) of BAD; conditions: whole cell lysate of COS-7 cells, glutathione bead precipitation, anti-HA blot
Description: In order to test whether the additional and novel phosphorylation site on BAD has functional significance, the effect on BAD binding to Bcl-XL was examined. Recombinant Bcl-XL tagged with the glutathione S-transferase (“GST”) moiety (“GST-Bcl-XL”) was incubated with WCL prepared from COS-7 cells expressing the double mutant HA-BAD S112A/S136A, and the HA-BAD S112A/S136A that bound to the GST-Bcl-XL was precipitated with GST beads. […] No HA-BAD S112A/S136A was precipitated with GST beads from the WCL that were not incubated with GST-Bcl-XL (FIG. 1, lane 4).
The ability of full-length BAD and mutant BAD S155A to bind Bcl-XL was also determined (FIG. 3(c)). Full-length BAD (“WT”) and mutant BAD S155A (“S155A”) were produced by in vitro translation and labeled with ^35S-methionine therein. […] Proteins bound to the beads (“Bound”) (lower panel) and samples of the reactions collected prior to incubation with the beads (“Total”) (upper panel) were analyzed by SDS-PAGE followed by autoradiography.
For Bcl-XL binding studies, GST-Bcl-XL (1 mg/ml final concentration) was added to cell lysates derived from BAD expressing cells, and incubated with rotation for two hours at 4° C. […] The beads were then washed with RIPA buffer, the proteins were separated by SDS-PAGE and associated BAD detected by probing the blot with anti-HA antibody.

[2] = test system: BAD phosphorylation in COS-7 cells; assay: BAD phosphorylation in COS-7 cells (western blot band-shift); type: cell-based; conditions: anti-HA western blot, listed as HA-BAD S112A/S136A
Excerpt: Mouse FL5.12 cells were then transfected with the expression vector encoding the shorter murine BAD of SEQ ID NO:3 or one of the three BAD mutants. Total mRNA was isolated from the transfected FL5.12 cells, and reverse transcribed into cDNA. The cDNA was then subcloned into the expression vector pcDNA3 so that the amino acid sequence of the BAD or mutant BAD, encoded by the subcloned cDNA, was in-frame and operably linked to an N-terminal hemagglutinin (“HA”) epitope encoded by the expression vector. The expression vectors encoding the HA-tagged shorter murine BAD and mutant BAD were expressed in COS-7 cells. Whole cell lysates (“WCL”) were then prepared from the COS-7 cells expressing the polypeptides. The phosphorylation of the shorter murine BAD of SEQ ID NO:3 and mutant BAD were detected by a western blot of the WCL, probed with an anti-HA antibody (“anti-HA antibody”). […] Of note, each of the BAD mutants resolved as a doublet on a 16% SDS-PAGE, even though in the amino acid sequence of each of the BAD mutants one or both of the serines corresponding to Ser112 and Ser136 were mutated, i.e., substituted with alanine. […]

[3] = test system: HeLa cells; assay: Fluorescence-based beta-galactosidase assay of BAD-induced cell death in transfected HeLa cells; parameters: species or system human; conditions: SFM vs SFM+EGF, 12 hours
Description: FIG. 12(B) is a graphic representation of the results of a β-galactosidase assay. HeLa cells were co-transfected with the β-galactosidase gene and either HA-BAD (“WT”), HA-BAD S155A (“S155A”), HA-BAD S112A/S136A (“S112A/S136A”) or HA-BAD S112A/S136A/S155A (“AAA”). Transfected cells were then cultured in serum-free medium (SFM) or SFM supplemented with EGF (SFM+EGF) for 12 hours. Cell lysates were prepared and BAD-induced cell death was measured by the loss of β-galactosidase activity in a fluorescence-based assay. Fluorescence was measured at 465 nm. Results shown are the average and standard deviation of triplicate transfections (this experiment was repeated two more times with similar results). Expression levels of HA-tagged BAD and BAD mutants in transfected cell lysates were detected by anti-HA western blot analysis: HA-BAD (“WT”), HA-BAD S155A (“A”), HA-BAD S112A/S136A (“AA”), and HA-BAD S112A/S136A/S155A (“AAA”).
FIG. 12(C) is a graphic representation of the results of a β-galactosidase assay. HeLa cells were co-transfected with the β-galactosidase gene and either an empty vector (“CTL”), wild-type BAD (“WT”), the BAD S155A mutant (“S155A”) or the BAD S155D mutant (“S155D”). Cell lysates were prepared and BAD-induced cell death was measured by the loss of β-galactosidase activity in a fluorescence-based assay. Fluorescence was measured at 465 nm. Results shown are the average and standard deviation of triplicate transfections (this experiment was repeated two more times with similar results).
HeLa cells were co-transfected with the β-galactosidase gene and either wild-type BAD, BAD S155A, BAD S112A/S136A or BAD S112A/S136A/S155A. […] Cell lysates were prepared and BAD-induced cell death was measured by the loss of β-galactosidase activity in a fluorescence-based assay. […]
To measure β-gal activity, HeLa cells were plated in 12-well plates at 5×10^4 cells/well one day prior to transfection. […] Beta-gal activity was measured in extracts using a fluorogenic substrate (MUG, BIO-RAD FluorAce™ β-gal Reporter Assay, #170–3150). […]

GST-Bcl-XL, sequence (Q07817 whole entry): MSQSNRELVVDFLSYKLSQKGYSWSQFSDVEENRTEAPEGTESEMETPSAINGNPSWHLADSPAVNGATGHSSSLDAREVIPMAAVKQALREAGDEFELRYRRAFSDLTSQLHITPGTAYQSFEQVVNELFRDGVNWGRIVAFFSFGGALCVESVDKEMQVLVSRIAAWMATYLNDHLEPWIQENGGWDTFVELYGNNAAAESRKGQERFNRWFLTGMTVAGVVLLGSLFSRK

B1: BAD S112A/S136A: mutant of shorter murine BAD, serines corresponding to Ser112 and Ser136 substituted with alanine (protein)
chain: MFQIPEFEPSEQEDASATDRGLGPSLTEDQPGPYLAPGLLGSNIHQQGRAATNSHHGGAGAMETRSRHSAYPAGTEEDEGMEEELSPFRGRSRAAPPNLWAAQRYGRELRRMSDEFEGSFKGLPRPKSAGTATQMRQSAGWTRIIQSWWDRNLGKGGSTPSQ
modifications: left off: small tags and cut ends
notes: mutant of shorter murine BAD, serines corresponding to Ser112 and Ser136 substituted with alanine
binding to GST-Bcl-XL [1]: only the lower molecular weight band of the doublet was detected
phosphorylation of expressed BAD mutant (lambda phosphatase-sensitive higher molecular weight band) [2]: phosphatase treatment completely eliminated the higher molecular weight band of the doublet; also recorded: do not eliminate the phosphorylation of BAD
effect of EGF stimulation on pro-apoptotic activity of the BAD mutant [3]: also suppressed by EGF stimulation
